Article PMC4497658

Target: IFNAR receptors (IFNAR1 and IFNAR2) on WISH cells (human (endogenous in WISH)) (UniProt P17181)
Assay: radioligand binding; in situ competition on WISH cells: ^125I-labeled wild type IFNα2 (200,000 cpm/well) with unlabeled IFN at ten concentrations (4-fold steps from 200 nM for the antagonists, 10 nM for IFNα2-α8tail), 1 hr at room temperature, culture medium + 0.1% sodium azide

| EC50 [nM] | Substance |
| --- | --- |
| 0.15 | IFNα2-α8tail (ligand) |
| 2 | IFN-1ant_(Y85A) (ligand) |
| 1.7 | IFN-1ant_(N65A) (ligand) |
| 0.8 | IFN-1ant_(Y85M) (ligand) |
| 0.5 | IFN-1ant (IFNα2 R120E with the α8-tail) (ligand) |
| 0.001 | YNS (IFNα2 N57Y, E58N and Q61S) (ligand) |
